Source: patent publication US20230000950A1, “COMPOSITION COMPRISING GLUCAGON AND GLP-1 AND GIP RECEPTOR DUAL AGONIST AND THERAPEUTIC USE OF SAME” (HANMI PHARM. CO., LTD., priority 2019, published 2023)
Positions of bridges follow the written chain, without caps; N, C: chain ends. Non-standard residues stand in square brackets, D forms with d. No end group written: not given here. Aib = CC(C)(N)C(=O)O

What follows are binders tested against human glucagon receptor (human, UniProt P47871 26-477) (assay: cell-based or functional assay).
human glucagon receptor, sequence (P47871 26-477): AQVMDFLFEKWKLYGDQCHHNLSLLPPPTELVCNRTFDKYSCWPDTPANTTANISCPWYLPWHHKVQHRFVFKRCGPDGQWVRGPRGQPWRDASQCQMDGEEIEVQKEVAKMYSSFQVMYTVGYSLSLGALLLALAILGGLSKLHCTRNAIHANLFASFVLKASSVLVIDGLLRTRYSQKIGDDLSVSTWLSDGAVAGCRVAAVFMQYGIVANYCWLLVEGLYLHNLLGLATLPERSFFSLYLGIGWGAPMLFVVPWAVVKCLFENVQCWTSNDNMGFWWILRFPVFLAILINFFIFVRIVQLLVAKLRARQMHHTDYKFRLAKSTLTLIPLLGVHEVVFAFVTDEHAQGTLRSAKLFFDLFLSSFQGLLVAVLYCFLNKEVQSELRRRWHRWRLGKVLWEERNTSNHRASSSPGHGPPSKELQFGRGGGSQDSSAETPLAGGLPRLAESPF
Y[Aib]QGTFTSDYSKYLDSCDAQDFVVWLINT [glucagon derivative of SEQ ID NO: 9] was tested, and the “In vitro activity (relative activity to SEQ ID NO: 1, %), cAMP assay, from EC50” value was < 0.1%.
For Y[Aib]QGTFTSDYSKYLDSCDADDFVVWLINT [glucagon derivative of SEQ ID NO: 10], the “In vitro activity (relative activity to SEQ ID NO: 1, %), cAMP assay, from EC50” value was < 0.1%.
In the case of Y[Aib]QGTFTSDYSKYLDEKCAKEFVQWLMNT [glucagon derivative of SEQ ID NO: 11], the “In vitro activity (relative activity to SEQ ID NO: 1, %), cAMP assay, from EC50” value is reported as 4.6%.
With Y[Aib]QGTFTSDYSKYLDEKRAKEFVQWLMNTC (lactam 16-20) [glucagon derivative of SEQ ID NO: 12] the “In vitro activity (relative activity to SEQ ID NO: 1, %), cAMP assay, from EC50” value was 56.3%.
With Y[Aib]QGTFTSDYSCYLDSRRAQDFVQWLMNT [glucagon derivative of SEQ ID NO: 13] the “In vitro activity (relative activity to SEQ ID NO: 1, %), cAMP assay, from EC50” value was 5.2%.
With Y[Aib]QGTFTSDYSKYLDCKRAKEFVQWLMNT [glucagon derivative of SEQ ID NO: 14] the “In vitro activity (relative activity to SEQ ID NO: 1, %), cAMP assay, from EC50” value was 18.1%.
Y[Aib]QGTFTSDYSKYLDCRRAQVFVQWLMRT [glucagon derivative of SEQ ID NO: 16] was tested, and the “In vitro activity (relative activity to SEQ ID NO: 1, %), cAMP assay, from EC50” value was 4.2%.
Y[Aib]QGTFTSDYSKYLDCVRAQDFVQWLMRT [glucagon derivative of SEQ ID NO: 17] was tested, and the “In vitro activity (relative activity to SEQ ID NO: 1, %), cAMP assay, from EC50” value was 23.2%.
With Y[Aib]QGTFTSDYSKYLDSRRACDFRLWLMNT [glucagon derivative of SEQ ID NO: 18] the “In vitro activity (relative activity to SEQ ID NO: 1, %), cAMP assay, from EC50” value was < 0.1%.
Y[Aib]QGTFTSDYSKYLCEKRAKEFVQWLMNT (lactam 16-20) [glucagon derivative of SEQ ID NO: 19] was tested, and the “In vitro activity (relative activity to SEQ ID NO: 1, %), cAMP assay, from EC50” value was 12.1%.
In the case of Y[Aib]QGTFTSDYSKYLDECRAKEFVQWLMNT (lactam 16-20) [glucagon derivative of SEQ ID NO: 20], the “In vitro activity (relative activity to SEQ ID NO: 1, %), cAMP assay, from EC50” value is reported as 300%.
For Y[Aib]QGTFTSDYSKYLDEKCAKEFVQWLMNT (lactam 16-20) [glucagon derivative of SEQ ID NO: 21], the “In vitro activity (relative activity to SEQ ID NO: 1, %), cAMP assay, from EC50” value was 57.8%.
Y[Aib]QGTFTSDYSKYLDEKRCKEFVQWLMNT (lactam 16-20) [glucagon derivative of SEQ ID NO: 22] was tested, and the “In vitro activity (relative activity to SEQ ID NO: 1, %), cAMP assay, from EC50” value was 148%.
Y[Aib]QGTFTSDYSKYCDEKRAKEFVQWLMNT (lactam 16-20) [glucagon derivative of SEQ ID NO: 23] was tested, and the “In vitro activity (relative activity to SEQ ID NO: 1, %), cAMP assay, from EC50” value was 76.8%.
With Y[Aib]QGTFTSDYSKCLDEKRAKEFVQWLMNT (lactam 16-20) [glucagon derivative of SEQ ID NO: 24] the “In vitro activity (relative activity to SEQ ID NO: 1, %), cAMP assay, from EC50” value was 58%.
With Y[Aib]QGTFTSDYSKYLDEKRAKCFVQWLMNT (lactam 16-20) [glucagon derivative of SEQ ID NO: 25] the “In vitro activity (relative activity to SEQ ID NO: 1, %), cAMP assay, from EC50” value was 46.9%.
In the case of W[Aib]QGTFTSDYSKYLDECRAKDFVQWLMNT (lactam 16-20) [glucagon derivative of SEQ ID NO: 26], the “In vitro activity (relative activity to SEQ ID NO: 1, %), cAMP assay, from EC50” value is reported as 1%.
For Y[Aib]QGTFVSDYSKYLDECRAKDFVQWLMNT (lactam 16-20) [glucagon derivative of SEQ ID NO: 27], the “In vitro activity (relative activity to SEQ ID NO: 1, %), cAMP assay, from EC50” value was 93.6%.
With W[Aib]QGTFVSDYSKYLDECRAKDFVQWLMNT (lactam 16-20) [glucagon derivative of SEQ ID NO: 28] the “In vitro activity (relative activity to SEQ ID NO: 1, %), cAMP assay, from EC50” value was < 0.1%.
HSQGTFTSDYSKYLDCDRAQDFVQWLMNT [glucagon derivative of SEQ ID NO: 2] was tested, and the “In vitro activity (relative activity to SEQ ID NO: 1, %), cAMP assay, from EC50” value was 0.6%.
For Y[Aib]QGTFTSDYSKCLDERRAKDFVQWLMNT (lactam 16-20) [glucagon derivative of SEQ ID NO: 29], the “In vitro activity (relative activity to SEQ ID NO: 1, %), cAMP assay, from EC50” value was 61.3%.
For W[Aib]QGTFTSDYSKCLDERRAKDFVQWLMNT (lactam 16-20) [glucagon derivative of SEQ ID NO: 30], the “In vitro activity (relative activity to SEQ ID NO: 1, %), cAMP assay, from EC50” value was 0.3%.
Y[Aib]QGTFTSDYSKYLDCKRAKEFVQWLMNT (lactam 17-21) [glucagon derivative of SEQ ID NO: 31] was tested, and the “In vitro activity (relative activity to SEQ ID NO: 1, %), cAMP assay, from EC50” value was 6.3%.
SQGTFTSDYSKYLDECRAKEFVQWLMNT (lactam 15-19) [glucagon derivative of SEQ ID NO: 32] was tested, and the “In vitro activity (relative activity to SEQ ID NO: 1, %), cAMP assay, from EC50” value was 0.7%.
For YXQGTFTSDYSKYLDSRRAQDFVQWLMNT (X at position 2 = aminoisobutyric acid (Aib)) [glucagon derivative of SEQ ID NO: 33], the “In vitro activity (relative activity to SEQ ID NO: 1, %), cAMP assay, from EC50” value was 108%.
W[Aib]QGTFTSDYSKYCDERRAKEFVQWLMNT (lactam 16-20) [glucagon derivative of SEQ ID NO: 34] was tested, and the “In vitro activity (relative activity to SEQ ID NO: 1, %), cAMP assay, from EC50” value was 0.2%.
Y[Aib]QGTFTSDYSKYCDERRAKEFVQWLMNT (lactam 16-20) [glucagon derivative of SEQ ID NO: 35] was tested, and the “In vitro activity (relative activity to SEQ ID NO: 1, %), cAMP assay, from EC50” value was 17.7%.
Y[Aib]QGTFTSDCSKYLDERRAKEFVQWLMNT (lactam 16-20) [glucagon derivative of SEQ ID NO: 36] was tested, and the “In vitro activity (relative activity to SEQ ID NO: 1, %), cAMP assay, from EC50” value was 9.9%.
In the case of Y[Aib]QGTFTSDYSKYLDERRAKEFVQWLMNTC (lactam 16-20) [glucagon derivative of SEQ ID NO: 37], the “In vitro activity (relative activity to SEQ ID NO: 1, %), cAMP assay, from EC50” value is reported as 226%.
In the case of Y[Aib]QGTFCSDYSKYLDERRAKEFVQWLMNT (lactam 16-20) [glucagon derivative of SEQ ID NO: 38], the “In vitro activity (relative activity to SEQ ID NO: 1, %), cAMP assay, from EC50” value is reported as 167%.
HSQGTFTSDYSKYLDCERAQDFVQWLMNT [glucagon derivative of SEQ ID NO: 3] was tested, and the “In vitro activity (relative activity to SEQ ID NO: 1, %), cAMP assay, from EC50” value was 6.1%.
With Y[Aib]QGTFVSDCSKYLDERRAKDFVQWLMNT (lactam 16-20) [glucagon derivative of SEQ ID NO: 39] the “In vitro activity (relative activity to SEQ ID NO: 1, %), cAMP assay, from EC50” value was 3.7%.
With Y[Aib]QGTFVSDYSKYLDERRAKDFVQWLMNTC (lactam 16-20) [glucagon derivative of SEQ ID NO: 40] the “In vitro activity (relative activity to SEQ ID NO: 1, %), cAMP assay, from EC50” value was 40.8%.
Y[Aib]QGTFCSDYSKYLDERRAKDFVQWLMNT (lactam 16-20) [glucagon derivative of SEQ ID NO: 41] was tested, and the “In vitro activity (relative activity to SEQ ID NO: 1, %), cAMP assay, from EC50” value was 45.2%.
With Y[Aib]QGTFCSDYSKYLDSRRAQDFVQWLMNT [glucagon derivative of SEQ ID NO: 42] the “In vitro activity (relative activity to SEQ ID NO: 1, %), cAMP assay, from EC50” value was 37.9%.
Y[Aib]QGTFTSDCSKYLDSRRAQDFVQWLMNT [glucagon derivative of SEQ ID NO: 43] was tested, and the “In vitro activity (relative activity to SEQ ID NO: 1, %), cAMP assay, from EC50” value was 1.6%.
